No end group written: not given here.

The text below walks through data of patent US20170314054A1 (ROCHE SEQUENCING SOLUTIONS, published 2017).

Data set [1] has as its target T1, microbial transglutaminase from Streptomyces mobaraensis (MTG) (Streptomyces mobaraensis, UniProt P81453 77-407).
T1 sequence (looked up): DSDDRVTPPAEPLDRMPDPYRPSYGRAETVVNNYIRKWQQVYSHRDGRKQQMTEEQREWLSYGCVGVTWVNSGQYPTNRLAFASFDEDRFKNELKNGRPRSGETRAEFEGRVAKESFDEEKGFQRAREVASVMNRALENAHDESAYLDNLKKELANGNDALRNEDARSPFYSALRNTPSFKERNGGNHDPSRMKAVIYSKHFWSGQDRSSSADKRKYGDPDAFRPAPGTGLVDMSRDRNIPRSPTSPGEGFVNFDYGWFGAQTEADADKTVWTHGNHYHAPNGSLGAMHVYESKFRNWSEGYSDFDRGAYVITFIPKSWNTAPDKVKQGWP
In words: cell-based or functional assay.

The target in data set [2] is T2, Z-GGGARSKLGGGG (SEQ ID NO: 80).
T2 chain: GGGARSKLGGGG

The target in data set [3] is T3, Z-GGGDYALQGGGG (SEQ ID NO: 86).
T3 chain: GGGDYALQGGGG

The target in data set [4] is T4, Z-GGGDEKPDGGGG (SEQ ID NO: 81).
T4 chain: GGGDEKPDGGGG

LSKLK (also: flanked by G:S (3:1) linkers on peptide array) [LSKLK (SEQ ID NO: 75)]: in data set [1], the “A (array MTG labeling signal with Z-Gln-Gly-CAD-biotin)” value was determined as 13.3.
The same measure, in the same setting: the result for QRTKL (also: flanked by G:S (3:1) linkers on peptide array) [QRTKL (SEQ ID NO: 77)] reads 13.3.

B1: microbial transglutaminase from Streptomyces mobaraensis (MTG) (protein)
chain: T1 sequence (looked up)
In the case of B1, in data set [2], the KM (GLDH-coupled MTG activity assay, 100 µM Z-GGGDYALQGGGG as amine acceptor) is 66.8 µM; the Vmax (GLDH-coupled MTG activity assay, 100 µM Z-GGGDYALQGGGG as amine acceptor) was found to be 5.1 pmol/s; the “difference in MTG catalytic efficiency against GGGDEKPDGGGG (SEQ ID NO: 81)” value was “an apparent difference in MTG catalytic efficiency of at least 10-fold was observed”; the kcat (GLDH-coupled MTG activity assay, 100 µM Z-GGGDYALQGGGG as amine acceptor) is 0.066 s⁻¹. For the same molecule, the kcat/KM (GLDH-coupled MTG activity assay, 100 µM Z-GGGDYALQGGGG as amine acceptor) in data set [2] was determined as 990 M⁻¹ s⁻¹. Further, in data set [3], the KM (GLDH-coupled MTG activity assay) was 970 µM, the Vmax (GLDH-coupled MTG activity assay) came to 0.46 nmol/s, the “difference in MTG catalytic efficiency against standard QG-substrate” value is listed as “a difference in MTG catalytic efficiency of at least 3-fold” and the kcat (GLDH-coupled MTG activity assay) was determined as 6 s⁻¹. For the same molecule, the kcat/KM (GLDH-coupled MTG activity assay) in data set [3] was 6200 M⁻¹ s⁻¹. Moreover, the “stated: almost no MTG turnover (rate of NADH oxidation, GLDH-coupled assay, 100 uM Z-GGGDYALQGGGG as amine acceptor)” value in data set [4] is “filled circles: rate stays at about 0 pmol/s from 0 to 200 uM and reaches only about 0.2 pmol/s at 500 uM”.
In the case of NRTKL (also: flanked by G:S (3:1) linkers on peptide array) [NRTKL (SEQ ID NO: 76)], in data set [1], the “A (array MTG labeling signal with Z-Gln-Gly-CAD-biotin)” value came out at 13.3.
Consider KTKYK (also: flanked by G:S (3:1) linkers on peptide array) [KTKYK (SEQ ID NO: 74)], for which the “A (array MTG labeling signal with Z-Gln-Gly-CAD-biotin)” value in data set [1] worked out at 13.3.
Take GYKLK (also: flanked by G:S (3:1) linkers on peptide array) [GYKLK (SEQ ID NO: 78)]: in data set [1], the “A (array MTG labeling signal with Z-Gln-Gly-CAD-biotin)” value turned out to be 13.3.
